Experimental data: patent US20150139990A1 (DAINIPPON SUMITOMO PHARMA, published 2015)
Changes are numbered by the printed parent chain. Numbers in names are those of the source.

T1: human CD81 on CD81-expressing cells (Jurkat E6.1, human PBMC, Ramos) (human, UniProt P60033 1-236)
T1 construct: endogenous CD81 of the cells; also called wild type human CD81
T1 sequence: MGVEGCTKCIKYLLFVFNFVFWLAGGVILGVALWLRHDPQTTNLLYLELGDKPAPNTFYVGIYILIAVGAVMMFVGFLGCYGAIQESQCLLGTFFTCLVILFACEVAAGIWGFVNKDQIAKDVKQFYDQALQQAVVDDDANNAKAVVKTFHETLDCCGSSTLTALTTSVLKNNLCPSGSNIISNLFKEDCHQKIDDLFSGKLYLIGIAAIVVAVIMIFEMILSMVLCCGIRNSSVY

T2: c80h human-chicken CD81 chimera (chicken; human, UniProt P60033 1-236)
T2 construct: as m30; not shown: C-terminal V5 and 6xHis tags
T2 chain: T1 sequence with V20I, V27I, P39S, L44I, E48Q, P53Q

T3: h138c human-chicken CD81 chimera (human; chicken)
T3 construct: as m30; not shown: C-terminal V5 and 6xHis tags
T3 chain: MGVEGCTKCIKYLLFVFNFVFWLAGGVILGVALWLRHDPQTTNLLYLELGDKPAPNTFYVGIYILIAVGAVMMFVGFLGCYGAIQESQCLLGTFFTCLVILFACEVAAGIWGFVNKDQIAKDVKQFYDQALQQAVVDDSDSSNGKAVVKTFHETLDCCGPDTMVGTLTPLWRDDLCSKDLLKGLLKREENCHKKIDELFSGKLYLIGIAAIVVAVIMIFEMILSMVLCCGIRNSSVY

T4: h156c human-chicken CD81 chimera (human; chicken)
T4 construct: as m30; not shown: C-terminal V5 and 6xHis tags
T4 chain: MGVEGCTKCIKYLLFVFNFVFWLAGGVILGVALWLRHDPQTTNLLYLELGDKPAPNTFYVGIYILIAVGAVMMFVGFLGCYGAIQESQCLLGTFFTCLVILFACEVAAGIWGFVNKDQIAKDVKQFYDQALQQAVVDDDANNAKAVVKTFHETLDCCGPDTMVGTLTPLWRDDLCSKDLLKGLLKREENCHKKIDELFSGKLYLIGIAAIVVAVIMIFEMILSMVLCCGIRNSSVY

T5: human CD81 mutant N172A (human, UniProt P60033 1-236, limits assumed)
T5 construct: as m30; not shown: C-terminal V5 and 6xHis tags
T5 sequence: T1 sequence with N172A

B1: 002-A07 IgG4 antibody (antibody)
heavy: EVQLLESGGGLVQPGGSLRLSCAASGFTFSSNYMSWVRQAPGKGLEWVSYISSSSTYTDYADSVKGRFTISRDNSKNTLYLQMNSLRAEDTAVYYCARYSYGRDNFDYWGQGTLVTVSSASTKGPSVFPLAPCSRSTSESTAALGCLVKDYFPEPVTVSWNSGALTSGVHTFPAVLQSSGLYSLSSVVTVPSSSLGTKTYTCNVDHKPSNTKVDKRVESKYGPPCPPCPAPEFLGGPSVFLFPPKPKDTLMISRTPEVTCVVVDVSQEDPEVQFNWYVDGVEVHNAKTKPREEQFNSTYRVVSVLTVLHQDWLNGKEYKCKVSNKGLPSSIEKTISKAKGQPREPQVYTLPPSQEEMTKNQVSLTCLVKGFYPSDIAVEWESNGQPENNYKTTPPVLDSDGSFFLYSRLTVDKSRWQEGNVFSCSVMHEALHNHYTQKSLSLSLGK
light: QSVLTQPPSASGTPGQRVTISCTGSTSNIGAGYDTHWYQQLPGTAPKLLIYGNSNRPSGVPDRFSGSKSGTSASLAISGLRSEDEADYYCQSYDTNLSVWVFGGGTKLTVLGQPKAAPSVTLFPPSSEELQANKATLVCLISDFYPGAVTVAWKADSSPVKAGVETTTPSKQSNNKYAASSYLSLTPEQWKSHRSYSCQVTHEGSTVEKTVAPTECS
notes: human IgG4 S228P, lambda light chain
B2: 003-D07 (antibody, human IgG4 S228P, lambda, V domains shown)
VH: EVQLLESGGGLVQPGGSLRLSCAASGFTFSSNYMSWVRQAPGKGLEWVSYISSSSTYTDYADSVKGRFTISRDNSKNTLYLQMNSLRAEDTAVYYCARYSYDRDNFDYWGQGTLVTVSS
VL: QSVLTQPFSASGTPGQRVTISCTGSTSNIGAGYDTHWYQHLPGTAPKLLIYGNSNRPSGVPDRFSGSKSGTSASLAISGLRSEDEADYYCQSYDTNLSVWVFGGGTKLTVLG
notes: IgG4 S228P

Legend:
[1] = biological target: T1, human CD81 on CD81-expressing cells …; experiment: flow cytometry, human PBMC
Excerpt: (§1) Based on known information (JOURNAL OF VIROLOGY., 79, 4316-4328, 2005), Jurkat E6.1 cells and human PBMC (Peripheral Blood Mononuclear cells) were used as human CD81-expressing cells to confirm binding of the antibodies of the present invention obtained in Example 1 to the human CD81-expressing cells. Jurkat E6.1 cells were purchased from European Collection of Cell Cultures (ECACC) (Cat No. 88042803). Human PBMC were purchased from KAC Co., Ltd. (KAC). These cells were collected by centrifugation (4,000 rpm, 3 min, 4° C.) and suspended in FACS staining buffer (phosphate buffer, 0.09% sodium azide, 1% bovine serum albumin (BSA: Hyclone Laboratories)). The number of viable cells was counted using trypan blue and 10⁶ cells/100 μl were added in an eppendorf tube.
(§2) To the cells prepared in (1) above was added the anti-human CD81 antibody (002-A07 or 005-001) prepared in Example 1 or a human IgG4 (Acris) as a control (0.1 μg), and the cells were incubated for 20 min at 4° C. […] The binding ratio (%) of the anti-human CD81 antibody to the cells was analyzed by flow cytometry using FACS Calibur (BD Biosciences) and calculated as the percentage of cells having a PE-derived fluorescent intensity greater than that observed when the control IgG4 is used. […]

[2] = biological target: T2, c80h human-chicken CD81 chimera; experiment: ELISA
Description: (§3) To identify the epitopes to which each of the anti-human CD81 antibodies (002-A07 and 005-001) bind, ELISA assays were performed using human-chicken CD81 chimera constructs listed in Table 6. Each construct was transiently expressed in CHO cells and its cell membrane fraction was solubilized with detergents and immobilized onto a plate.
(§4) As control antibodies, human IgG4 antibody (Acris Antibodies GmbH) and mouse IgG antibody were used. Human-chicken chimera protein was captured via His tag introduced into the C-terminal by adding the membrane fraction (5 μg/100 μL/well) prepared (1) above to Ni NTA His Sorb plate (QIAGEN) in the presence of 1% (w/v) n-Octylglucoside and incubating for 3 hours at 4° C. After washing with TBST (TBS, 0.05% (v/v) Tween 20) three times, an anti-human CD81 antibody or a control antibody (50 μL/well) was added and incubated for 1 hour at room temperature (RT). After washing, 2000 fold-diluted HRP-labeled anti-human IgG4 antibody (Mouse anti-human IgG₄ HRP clone:HP6023 Beckman Coulter) or 1000 fold-diluted HRP-labeled anti-mouse IgG antibody (Invitrogen) (50 μL/well) were added. The plate was incubated for 1 hour at RT and washed with TBST three times. And then, peroxidase activity was determined by TMB One solution (Promega; Code 53025). The reaction was stopped with 2 M H₂SO₄ (50 μL) and absorbance at 450 nm was measured.

[3] = biological target: T3, h138c human-chicken CD81 chimera; experiment: ELISA
Description: as §3, §4

[4] = biological target: T4, h156c human-chicken CD81 chimera; experiment: ELISA
Description: as §3, §4

[5] = biological target: T1, human CD81 on CD81-expressing cells …; experiment: flow cytometry, Jurkat E6.1 cells
Excerpt: as §1, §2

human CD81 mutant N172A = biological target: T5, human CD81 mutant N172A; experiment: ELISA

Binder | binding ratio to cells (%) [1] [%] | binding result [2] | absorbance at 450 nm relative to hCD81 [3] [%] | absorbance at 450 nm relative to hCD81 [4] [%] | binding ratio to cells (%) [5] [%] | relative binding affinity (human CD81 mutant N172A) [%]
B1 | 99 | binds | < 10 | < 10 | 100 | 
B2 |  |  |  |  |  | < 20
